Changes are numbered by the printed parent chain. Names may count otherwise.

Test [1] addresses T1, porcine transferrin (porcine, UniProt P09571 1-696).
T1 construct: also called pTf; porcine Tf
The test is described as follows: solid-phase (dot) binding assay with HRP-conjugated porcine transferrin; also capture on porcine Tf-Sepharose.

The target of test [2] is T1, porcine transferrin. The test is described as follows: isothermal calorimetry, surface plasmon resonance or biolayer interferometry. (In general: In ITC the heat of successive injections is recorded.)
The target in test [3] is T1, porcine transferrin. Put plainly: affinity capture from cell lysate on porcine Tf-Sepharose, SDS-PAGE.

T1 sequence (P09571 whole entry): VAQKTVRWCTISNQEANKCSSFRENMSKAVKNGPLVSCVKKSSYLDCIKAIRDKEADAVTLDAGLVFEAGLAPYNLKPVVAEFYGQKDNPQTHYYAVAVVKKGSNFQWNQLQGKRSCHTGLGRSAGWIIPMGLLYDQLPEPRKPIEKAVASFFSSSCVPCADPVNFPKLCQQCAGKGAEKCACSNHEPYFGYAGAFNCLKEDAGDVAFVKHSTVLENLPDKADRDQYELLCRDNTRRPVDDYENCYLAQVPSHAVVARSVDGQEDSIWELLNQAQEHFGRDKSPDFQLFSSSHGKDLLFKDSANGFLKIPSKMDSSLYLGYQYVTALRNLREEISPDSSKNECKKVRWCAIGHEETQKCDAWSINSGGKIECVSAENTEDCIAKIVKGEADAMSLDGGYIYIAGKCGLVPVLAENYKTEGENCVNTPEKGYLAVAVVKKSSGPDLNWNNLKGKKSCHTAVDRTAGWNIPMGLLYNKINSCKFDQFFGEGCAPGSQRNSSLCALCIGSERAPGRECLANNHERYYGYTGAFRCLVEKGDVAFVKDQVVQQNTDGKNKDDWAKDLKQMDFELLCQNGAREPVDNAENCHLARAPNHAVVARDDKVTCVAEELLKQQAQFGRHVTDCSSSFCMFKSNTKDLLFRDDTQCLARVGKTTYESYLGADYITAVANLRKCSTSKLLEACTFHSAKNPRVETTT

B1: native TbpB N-lobe from Actinobacillus pleuropneumoniae strain H49, fusion protein with N-terminal maltose binding protein and polyhistidine tag (receptor)
chain: CSGGKGSFDLEDVRPNKTTGVSKEEYKDVETAKKEKEQLGELMEPALGYVVKVPVSSFENKKVDISDIEVITNGNLDDVPYKANSSKYNYPDIKTKDSSLQYVRSGYVIDGEHSGSNEKGYVYYKGNSPAKELPVNQLLTYTGSWDFTSNANLNNEEGRPNYLNDDYYTKFIGKRVGLVSGDAKPAKHKYTSQFEVDFATKKMTGKLSDKEKTIYTVNADIRGNRFTGAATASDKNKGKGESYNFFSADSQSLEGGFYGPKAEEMAGKFVANDKSLFAVF
notes: also called Mbp-TbpB N-lobe; native h49 TbpB N-lobe; not shown: N-terminal polyhistidine region of the custom expression vector; TEV (tobacco etch virus) cleavage site
Regarding B1, in the test with porcine transferrin [1], the binding result is “binds”.

B2: A. suis TbpB 27-577 (amino acid 27-577) derived from strain H57, purified recombinant truncated protein (receptor)
chain: SYQDEETKKKTKEELDKLMEPTLGVEAKIPRRNRALFDKEGNRKATPDTTDELSEAQIMAIWNENIDEIPHLKELNDKTTSGLIYHSHDGKQEDKKRNLQYVRSGYVFDESYSEIVKNKNGVPYIFKNGIDGYIYYLGTSPSKELPKGNKVTYKGTWDFTSDVKTSYELSGFSDAGNGKNVAATSISDNVNRDHKVGEKLGDNEVKGVAHSSEFAVDFDNKKLTGSLYRNGYINRNKAQEVTKRYSIEADITGNRFTGKAKAEKAGDPIFTDSNYLEGGFYGPKAEEMAGKFFTNNKSLFAVFAAKSENGETTTERIIDATKIDLTQFNAKELNNFGDASVLIIDGQKIDLAGVNFKNSKTVEINGKTMVAVACCSNLEYMKFGQLWQKEGKQQVKDNSLFLQGERTATDKMPAGGNYKYVGTWDALVSKGTNWIAEADNNRESGYRTEFDVNFSDKKVNGKLFDKGGVNPVFTVDATINGNGFIGSAKTSDSGFALDAGSSQHGNAVFSDIKVNGGFYGPTAGELGGQFHHKSDNGSVGAVFGA
notes: also called AsH57 TbpB; TbpB from Actinobacillus suis
Take B2: the Kd – broadly, the free concentration of one partner at which half of the binding sites on the other are occupied at equilibrium, for simple one-to-one binding – with porcine transferrin [2] is approximately 120 nM.

B3: engineered (loop-reduced) TbpB N-lobe from Actinobacillus pleuropneumoniae strain H49, fusion protein with N-terminal maltose binding protein and polyhistidine … (receptor)
chain: GSGVSKEEYKDVETAKKEKEQLGELGELMEPALGYVVKVPVSAGKKVDISDIEVITNGNLDDVPYKANSSKYNYPDIKTKDSSLQYVRSGYVISPDGGYVYYKGNSPAKELPVNQLLTYTGSWDFTSNANLNAARPAGAGKRVGLVSGDAKERKYTSQFEVDFATKKMTGKLSDKEKTIYTVNADIRGNRFTGAATASDKNDPILSADSQSLEGGFYGPKAEEMAGKFVANDKSLFAVFSAKHNGSNV
notes: also called engineered TbpB N-lobe H49; modified N-lobe; not shown: N-terminal polyhistidine region of the custom expression vector; TEV (tobacco etch virus) cleavage site
In the case of B3, the binding result with porcine transferrin [3] is “no binding”.

B4: Y174A mutant of A. pleuropneumoniae TbpB 26-528 derived from strain H87 (receptor)
chain: VNYTDEETQKRKKEELDKLMEPALGYVTKIPVNIPSVRKTEISEIDTVTDESLSLVPNEDKLRTIANENYGSVVTKSGSNTMNFVRSGYTIDVVHYGLRDKGYVYYKGVHPSKELPKGNIIVYQGEWDFTSNADLDAKRPNYNPEFNGAGAGQRVGVTSADAKERTYISKFNIDFSNKKLNGQLLTKTKENQEKLRYTVEANISGNRFRGKATATDKTDPILGKDSEHLEGGLYGPKSEELAGKFVAHDKSLFAVFSGKRGNDVLETVKIIDASKIDLTTFESSELNNFGNANVLIIDGQKIDLAGADFKNRKTVDINGKTMVAIACCSNLEYMKFGQLWQKEGEQTKDNSLFLQGERTATDKIPVGGNYKYVGTWDALVSKGTNWVAEADNNRESGYRSEFDVNFGDKKVSGKLFDKGGIVPVFMINADIKGNGFTGTANTTDTGFALDSGSSQHGNAVFSDIKVNGGFYGPTAGELGGQFHHKSDNGSVGAVFG
With B4, in the test with porcine transferrin [2], the “fold increase in the affinity constant (Kd) against the native TbpB” value (shortened to “fold increase in the affinity constant”) is 100 fold.

B5: engineered (loop-reduced) TbpB N-lobe from Actinobacillus pleuropneumoniae strain H87, fusion protein with N-terminal maltose binding protein and polyhistidine … (receptor)
chain: GSKLMEPALGYVTKIPVGPGSEISEIDTVTDESVSGAPGVVNSGYTIDVVHYGLRDKGSVSYKGVHPSKELPKGNIIVYQGEWDFTSNAGAAGRVGVTSADAKERTYISKFNIDFSNKKLNGQLLTKTKENQEKLRYTVEANISGNRFRGKATATDKTDPILGKDSEHLEGGLYGPKSEELAGKFVAHDKSLFAVFSGKRGNDVL
notes: also called engineered TbpB N-lobe H87; not shown: N-terminal polyhistidine region of the custom expression vector; TEV (tobacco etch virus) cleavage site
In the case of B5, the binding result in the test with porcine transferrin [3] is “no binding”.

B6: Y167A mutant of H. parasuis TbpB 27-577 derived from the Nagasaki strain Hp5 (receptor)
chain: CSGGKGSFDLEDVQPNKTTGVSKEEYKDVETDKKVKEQLGELMEPALGYVVKVPVSQSGVKRTEISNPEAITDEDLNKIPNYEIIKGVAYPNYGELVDKTAAETMKYVRSGYVIDVYHSGTRDKGYVFYKGITPSKELPQGPALTYQGEWDFTSDANLNNEEGRPTALNDDYYTTWIGKRAGLVSGDAKPSKHKYTSQFKVDFATKKMTGKLSDKEKTIYTVNADIRGNRFTGSATASDKDKGKGASYNFFSVDSQSLEGGFYGPKAEEMAGKFVADDKSLFAVFSAKHNASNVNTVRIIDASKIDLTNFSISELTNFGDASVLIIDGKKMELAGSEFTNKHTIDINGKKMVAVACCSNLEYMKFGQLWQQTEGEKQVKDNSLFLQGERTATDKMPKDGNYKYIGTWDAQVSKENNYWVATADDDRKAGYRTEFDVDFGSKNLSGKLFDKNGVNPVFTVNAKIDGNGFTGEAKTSDAGFVLDPGSLRHDNVKFSDVAVSGGFYGPTAAELGGQFRYQSDNGSVGVGAVFGAKQQVKK
notes: also called Y167A TbpB; Y167A mutant TbpB
Consider B6, for which the “fold increase in the affinity constant” value with porcine transferrin [2] came out at 100 fold.

B7: W176A mutant of H. parasuis TbpB 27-577 derived from the Nagasaki strain Hp5 (receptor)
chain: B6 chain with Y93A, A167Y, W176A
notes: also called W176A mutation in the TbpB from H. parasuis strain HP5
For the molecule B7, the “fold increase in the affinity constant” value with porcine transferrin [2] came out at 100 fold.

B8: F171A mutant of ApH49 TbpB 20-528 (receptor)
chain: GVSKEEYKDVETAKKEKEQLGELMEPALGYVVKVPVSSFENKKVDISDIEVITNGNLDDVPYKANSSKYNYPDIKTKDSSLQYVRSGYVIDGEHSGSNEKGYVYYKGNSPAKELPVNQLLTYTGSWDFTSNANLNNEEGRPNYLNDDYYTKAIGKRVGLVSGDAKPAKHKYTSQFEVDFATKKMTGKLSDKEKTIYTVNADIRGNRFTGAATASDKNKGKGESYNFFSADSQSLEGGFYGPKAEEMAGKFVANDKSLFAVFSAKHNGSNVDTVRIIDASKIDLTNFSISELNNFGDASVLIIDGKKIKLAGSGFTNKHTIEINGKTMVAVACCSNLEYMKFGQLWQQAEGGKPENNSLFLQGERTATDKMPKGGNYKYIGTWDAQVSKENNWVATADDDRKAGYRTEFDVDFGNKNLSGKLFDKNGVNPVFTVDAKIDGNGFTGKAKTSDAGFALDSGSSRYENVKFNDVAVSGGFYGPTAAELGGQFHHKSENGSVGAVFG
notes: also called F171A mutation in the TbpB from A. pleuropneumoniae strain H49
B8: the “fold increase in the affinity constant” value with porcine transferrin [2] was 100 fold.

Values taken from patent US20160303217A1 (ENGINEERED ANTIGENS, published 2016).
